Assay results: paper PMC7182444 (Science (New York, N.Y.), 2020)

Experiments:
[1] = target: the molecule itself; experiment: SDS-PAGE and SDD-AGE with western blotting
[2] = target: Orb2 filaments purified from adult heads (Drosophila melanogaster (endogenous in …, UniProt Q9VSR3 1-704)); experiment: seeded aggregation

B1: Orb2 (Drosophila CPEB) purified from adult heads (natural protein)
chain: MDSLKLPKANSATSSASGSNSNLSGSTSASASAATSPTSSGTAVGGILSGAPKSPPGLGSSTPISVRFNANEESLDDILQSFHHSKHSPSGGASGGGDASPTSNLLGMKNNGLGLVVGNCDSLSSSPSQPQMHAGSASLFGNDEVSLRNNFMQAGGFFNRKSCGGLPNLNLNKPPQLHQQQHQQQHQQHQQHQQQQQLHQHQQQLSPNLSALHHHHQQQQQLRESGGSHSPSSPGGGGGGSPYNGSQAGCSSGGISPIPPQMGVSPKYRRSISFPIKGNSPTAIYGNMHMDGMGSGHMNIPTLSIGNGGGGGSTGMVSAGATGGGDAPYLGNSYGNMMTSNGQMHHGGGLDNSLCDYMRNMSLGGNGGGDGSNSMSLMQDRMRVMGGPKHLSEADAMAIAASGNDPSVYLNALKMGSPSRLSPHSPHSPIQGGNGGNVGDGTARFSRKVFVGGLPPDIDEDEITTSFRRFGPLVVDWPHKAESKSYFPPKGYAFLLFQDESSVQQLIDSCITDEDKLYLCVSSPTIKDKAVQIRPWRLADADYVLDATMSLDPRKTVFVGGVPRPLKAFELAMIMDRLYGGVCYAGIDTDPELKYPKGAGRVAFSNQQSYIAAISARFVQLQHGDIDKRVEVKPYVLDDQMCDECEGQRCGGKFAPFFCANVTCLQYYCEHCWAVIHSRPGREYHKPLVKEGADRPRAVPFRWC
B1: binds [1]; binds [2].
